Laboratory results as given in the supplement of paper PMC10126150.
± gives the standard deviation of the averaged measurements.
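Also: ATP exposure 15 min at 22 °C before imaging.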

What follows are sequences tested on ATP (assay: switch fluorescence ratio, 500 uM ATP over buffer (Cy3 cluster intensity, sum of 5 cycles each) (fold (ratio)); higher = stronger signal-on switching upon ATP binding; sequences stand for … in TCGTCGGCAGCGTCAGATGTGTATAAGAGACAGTTTTTTTTTTTTTTTTTTTTTTTTT…TC). Conditions: aptamer strand: ATP DNA aptamer (quencher-CACCTGGGGGAGTATTGCGGAGGAAGG + anchor), 100 nM annealed; ATP concentration: 500 uM.
How it was run: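 Cy3-labelled switching-strand clusters on a modified Illumina MiSeq flow-cell were annealed to 100 nM quencher-labelled ATP aptamer and imaged first in selection buffer, then after 15 min with 500 uM ATP at 22 °C. NaOH stripping and re-annealing separated each of five buffer/ATP cycles, and clusters outside 100-1000 RFU were excluded. The fluorescence ratio sums target-cycle Cy3 intensity over buffer-cycle Cy3 intensity per cluster and averages it per switch-domain sequence.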
ATGGAACGGA was tested, and the switch fluorescence ratio was 1.03 ± 0.027.
ATGGAAGGAT gave a switch fluorescence ratio of 1.005 ± 0.0065.
In the case of ATGGAATAAG, the switch fluorescence ratio is reported as 0.998 ± 0.028.
With ATGGACGCCT the switch fluorescence ratio was 1.01 ± 0.037.
ATGGACGTGT gave a switch fluorescence ratio of 0.9935 ± 0.0033.
ATGGACTAGG gave a switch fluorescence ratio of 1.02 ± 0.022.
ATGGAGAGGG showed a switch fluorescence ratio of 0.987 ± 0.037.
ATGGAGATAG was tested, and the switch fluorescence ratio was 1.01 ± 0.026.
For ATGGAGCTTG, the switch fluorescence ratio was 0.983 ± 0.02.
Work on ATGGAGGCAA yielded a switch fluorescence ratio of 1.37 ± 0.12.
With ATGGAGGCTT the switch fluorescence ratio was 0.975 ± 0.018.
For ATGGAGGGAC, the switch fluorescence ratio was 1.48 ± 0.66.
Work on ATGGAGGGCA yielded a switch fluorescence ratio of 1.03 ± 0.049.
For ATGGAGGGGT, the switch fluorescence ratio was 1 ± 0.045.
Work on ATGGAGGTAG yielded a switch fluorescence ratio of 0.995 ± 0.027.
Work on ATGGAGGTCT yielded a switch fluorescence ratio of 1.01 ± 0.055.
ATGGATAT showed a switch fluorescence ratio of 0.98 ± 0.031.
Sequence ATGGATCCGG has a switch fluorescence ratio of 1.03 ± 0.083.
In the case of ATGGATGATG, the switch fluorescence ratio is reported as 0.991 ± 0.018.
Work on ATGGATGCGT yielded a switch fluorescence ratio of 0.967 ± 0.015.
For ATGGATGGGG, the switch fluorescence ratio was 0.998 ± 0.028.
ATGGATTTT showed a switch fluorescence ratio of 1.001 ± 0.0019.
For ATGGCAGCAT, the switch fluorescence ratio was 1.012 ± 0.0057.
In the case of ATGGCCAGCA, the switch fluorescence ratio is reported as 1.01 ± 0.03.
Sequence ATGGCCGGCC has a switch fluorescence ratio of 1.01 ± 0.02.
ATGGCCGGGA was tested, and the switch fluorescence ratio was 0.999 ± 0.016.
In the case of ATGGCCTATA, the switch fluorescence ratio is reported as 1.01 ± 0.028.
For ATGGCTGTGG, the switch fluorescence ratio was 0.9852 ± 0.0085.
In the case of ATGGCTTAGC, the switch fluorescence ratio is reported as 0.983 ± 0.015.
In the case of ATGGGAAACG, the switch fluorescence ratio is reported as 0.995 ± 0.014.
For ATGGGAATTT, the switch fluorescence ratio was 0.996 ± 0.028.
With ATGGGACGGG the switch fluorescence ratio was 1 ± 0.019.
For ATGGGACGTT, the switch fluorescence ratio was 0.983 ± 0.037.
ATGGGAGATG gave a switch fluorescence ratio of 0.983 ± 0.0045.
ATGGGAGGAT gave a switch fluorescence ratio of 1.018 ± 0.0027.
With ATGGGAGGGT the switch fluorescence ratio was 0.997 ± 0.061.
Sequence ATGGGCGAAC has a switch fluorescence ratio of 1.63 ± 0.82.
ATGGGCGGGG was tested, and the switch fluorescence ratio was 0.9947 ± 0.0065.
With ATGGGCTATA the switch fluorescence ratio was 1.03 ± 0.094.
Work on ATGGGCTCAG yielded a switch fluorescence ratio of 1.005 ± 0.0033.
In the case of ATGGGCTCCG, the switch fluorescence ratio is reported as 0.974 ± 0.015.
ATGGGCTGAG was tested, and the switch fluorescence ratio was 0.992 ± 0.017.
ATGGGCTGG gave a switch fluorescence ratio of 0.975 ± 0.031.
Work on ATGGGCTTCT yielded a switch fluorescence ratio of 1.018 ± 0.0091.
Sequence ATGGGCTTGC has a switch fluorescence ratio of 0.994 ± 0.083.
With ATGGGGACTT the switch fluorescence ratio was 0.979 ± 0.035.
Work on ATGGGGAGCG yielded a switch fluorescence ratio of 0.992 ± 0.031.
ATGGGGATAC was tested, and the switch fluorescence ratio was 1.06 ± 0.026.
Sequence ATGGGGCTTG has a switch fluorescence ratio of 1.05 ± 0.099.
Work on ATGGGGGAGC yielded a switch fluorescence ratio of 0.981 ± 0.011.
In the case of ATGGGGGATA, the switch fluorescence ratio is reported as 0.973 ± 0.041.
ATGGGGGTGC showed a switch fluorescence ratio of 0.99 ± 0.026.
Sequence ATGGGGTAAT has a switch fluorescence ratio of 1.01 ± 0.028.
In the case of ATGGGGTCTG, the switch fluorescence ratio is reported as 1.05 ± 0.095.
In the case of ATGGGGTGTA, the switch fluorescence ratio is reported as 1 ± 0.03.
ATGGGGTGTT showed a switch fluorescence ratio of 1 ± 0.024.
Work on ATGGGTCAAT yielded a switch fluorescence ratio of 1 ± 0.014.
ATGGGTCTCT showed a switch fluorescence ratio of 0.997 ± 0.017.
In the case of ATGGGTCTGC, the switch fluorescence ratio is reported as 1.16 ± 0.31.
ATGGGTGATC was tested, and the switch fluorescence ratio was 1.01 ± 0.011.
Sequence ATGGGTGGG has a switch fluorescence ratio of 0.965 ± 0.032.
In the case of ATGGGTGTAC, the switch fluorescence ratio is reported as 1.01 ± 0.016.
Work on ATGGGTGTCC yielded a switch fluorescence ratio of 1.004 ± 0.0056.
With ATGGTACACC the switch fluorescence ratio was 1.04 ± 0.013.
ATGGTAGCTT was tested, and the switch fluorescence ratio was 1 ± 0.024.
ATGGTAGGGG was tested, and the switch fluorescence ratio was 0.986 ± 0.014.
With ATGGTAGGTG the switch fluorescence ratio was 1.04 ± 0.083.
With ATGGTATCAG the switch fluorescence ratio was 1.007 ± 0.0084.
In the case of ATGGTATGGT, the switch fluorescence ratio is reported as 0.9855 ± 0.0081.
ATGGTCAGGG gave a switch fluorescence ratio of 0.987 ± 0.026.
ATGGTCGGAT showed a switch fluorescence ratio of 0.9804 ± 0.0098.
With ATGGTCGGTC the switch fluorescence ratio was 0.989 ± 0.036.
ATGGTGAATT was tested, and the switch fluorescence ratio was 1.016 ± 0.0044.
For ATGGTGCGGG, the switch fluorescence ratio was 1.02 ± 0.033.
Sequence ATGGTGGGAG has a switch fluorescence ratio of 0.992 ± 0.0061.
For ATGGTTAGGT, the switch fluorescence ratio was 1.02 ± 0.029.
